Results published in PMC5582856, “Inverted stereocontrol of iridoid synthase in snapdragon” (The Journal of Biological Chemistry, 2017).

Substrate: C/C(C=O)=C\CC/C(C)=C/C=O
Experiment: purified protein
Type: biochemical, Antirrhinum majus
Settings: 50 μM NADPH fixed, 200 mM MOPS pH 7.0, 100 mM NaCl, 1% THF, 25 °C, 20 nM enzyme

B1: AmISY (Am18679), Antirrhinum majus iridoid synthase (Antirrhinum majus) (protein)
chain: MSWWYRRSIGETEQKRIEINGVSPTYQSVALIVGVTGIAGSGLAETLSFSDTPGGPWKVYGVARRPCPKWLAKLNVNYVQCDIANTDETYSKVAPLTDITHIFYVSWTGSEDVALNTLMFKNILDSVIPNAPNLKHVSLQTGIKYYWGNMAEMDSTNQPHECPFYENMPRLKQDNFYYNLEDLVYDSAVRKNGLSWSIHRPALIFGFSPCSMMNTVSTLCVYAAICKHENKPLVYTGTETSWTCLWDAVDSDLLAEHFLWAATVPNAKNQAFNINNGDVFKWKHMWKVLAKEFDIEAIGYEGKEPVLLEDLMKDKDSVWDEIVKKHDLVPTKLRDIAAFWLADVVFRNKETLCSMNKNKEFGFMGFRDTTKSFVSSINKMRDFKFIP
notes: GenBank record is one of MF281392-MF281395 (not assigned in the text)
  Km: 1.1 ± 0.1 µM
  kcat: 0.72 ± 0.02 s⁻¹
